Here are results for two molecules from publication PMC6205234.

Holding throughout (experiment): fluorescence anisotropy
One data set addresses scPABP1 (human, UniProt P11940 1-636, C43S;C128S;C132S).
For data set [1], the target named is T1, PABP1 (WT) (human, UniProt P11940 1-636).
Data set [2] has as its target T1, PABP1 (WT). This is another data set of the same source.

T1 sequence (P11940 whole entry): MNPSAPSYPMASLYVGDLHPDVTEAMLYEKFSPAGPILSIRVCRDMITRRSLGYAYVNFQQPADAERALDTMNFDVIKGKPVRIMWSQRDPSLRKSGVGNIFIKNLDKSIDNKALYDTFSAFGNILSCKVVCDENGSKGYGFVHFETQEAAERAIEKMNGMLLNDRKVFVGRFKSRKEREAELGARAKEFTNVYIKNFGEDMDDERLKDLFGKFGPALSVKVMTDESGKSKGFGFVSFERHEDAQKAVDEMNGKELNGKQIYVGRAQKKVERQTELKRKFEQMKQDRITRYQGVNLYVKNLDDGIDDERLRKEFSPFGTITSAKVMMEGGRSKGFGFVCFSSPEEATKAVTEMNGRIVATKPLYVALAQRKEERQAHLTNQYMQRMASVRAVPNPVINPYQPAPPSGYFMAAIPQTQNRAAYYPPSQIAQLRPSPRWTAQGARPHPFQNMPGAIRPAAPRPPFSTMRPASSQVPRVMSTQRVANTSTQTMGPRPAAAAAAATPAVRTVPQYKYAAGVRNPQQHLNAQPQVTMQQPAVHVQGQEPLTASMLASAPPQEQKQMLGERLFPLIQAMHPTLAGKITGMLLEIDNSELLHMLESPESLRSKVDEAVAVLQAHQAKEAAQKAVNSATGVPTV
scPABP1, sequence (P11940 whole entry C43S/C128S/C132S): as the sequence (P11940 whole entry) above, with C43S, C128S, C132S counted along it

AAAAAAAAAAAAAAAAAU (ssRNA) [Poly (A)18]: the Kd with scPABP1 worked out at 5.1 ± 0.6 nM; with PABP1 (WT) [1], 2 ± 0.5 nM.
Regarding CCCCCCCCCCCCCCCCCU (ssRNA) [Poly (C)18], the binding result with PABP1 (WT) [2] is reported as “no binding”.
